Consider 10 proteins from patent publication US11491212.

The target of this data set is Factor X (FX), P00742.
Chain of Factor X (FX), P00742 (P00742 whole entry, looked up): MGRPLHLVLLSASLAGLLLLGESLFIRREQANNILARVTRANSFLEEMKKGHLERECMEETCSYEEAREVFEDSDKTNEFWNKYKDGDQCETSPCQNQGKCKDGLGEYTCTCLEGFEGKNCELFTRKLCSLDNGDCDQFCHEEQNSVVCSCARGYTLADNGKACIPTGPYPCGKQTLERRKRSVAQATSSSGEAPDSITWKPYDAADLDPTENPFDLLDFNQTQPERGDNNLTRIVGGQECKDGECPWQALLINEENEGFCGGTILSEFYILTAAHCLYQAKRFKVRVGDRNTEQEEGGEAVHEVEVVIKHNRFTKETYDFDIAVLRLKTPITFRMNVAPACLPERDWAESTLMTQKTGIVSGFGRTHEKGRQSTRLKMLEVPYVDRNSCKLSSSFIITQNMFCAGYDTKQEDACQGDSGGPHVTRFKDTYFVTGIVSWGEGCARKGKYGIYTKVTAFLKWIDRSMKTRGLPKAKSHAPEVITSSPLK

B1: FIXa-D203N/F205T/R338E (mature FIX numbering) (protein)
chain 1: not shown
chain 2: not shown
For the protein B1, the “% of WT kcat/KM” value came out at 228%.

B2: FIXa-D203N/F205T/R318Y (mature FIX numbering) (protein)
chain 1: not shown
chain 2: not shown
Regarding B2, the “% of WT kcat/KM” value was 44%.

B3: FIXa-D203N/F205T/R338E/R403E (mature FIX numbering) (protein)
chain 1: not shown
chain 2: not shown
For B3, the “% of WT kcat/KM” value is recorded as 41%.

B4: FIXa-D203N/F205T/K228N (mature FIX numbering) (protein)
chain 1: not shown
chain 2: not shown
Turning to B4, the “% of WT kcat/KM” value was 30%.

B5: FIXa-D203N/F205T/R338A (mature FIX numbering) (protein)
chain 1: not shown
chain 2: not shown
For B5, the “% of WT kcat/KM” value is recorded as 135%.

B6: FIXa-D203N/F205T/E410N (mature FIX numbering) (protein)
chain 1: not shown
chain 2: not shown
For the protein B6, the “% of WT kcat/KM” value came to 91%.

B7: FIXa-D85N/K228N/R318Y/R338E/R403E/E410N (protein)
chain 1: not shown
chain 2: not shown
With B7, the “% of WT kcat/KM (against Catalyst Biosciences WT FIXa)” value is 336% and the kcat/KM for activation of FX by FIXa in the Xase complex (FVIIIa, PC/PS vesicles, Ca2+), fluorogenic Spectrafluor FXa read-out stood at 1.6e+08 M⁻¹ s⁻¹.

B8: FIXa-R318Y/R338E/R403E (mature FIX numbering) (protein)
chain 1: not shown
chain 2: not shown
For the protein B8, the “% of WT kcat/KM” value came to 134%.

B9: FIXa-Y155F/R318Y/R338E/R403E (mature FIX numbering) (protein)
chain 1: not shown
chain 2: not shown
For B9, the “% of WT kcat/KM” value stood at 189%.

B10: FIXa-K228N/R318Y/R338E/R403E/E410N (protein)
chain 1: not shown
chain 2: not shown
With B10, the “% of WT kcat/KM (against Catalyst Biosciences WT FIXa)” value is recorded as 339% and the kcat/KM for activation of FX by FIXa in the Xase complex (FVIIIa, PC/PS vesicles, Ca2+), fluorogenic Spectrafluor FXa read-out was 1.6e+08 M⁻¹ s⁻¹.
